pKd: −log10 of the molar value.

The term pKd denotes the Kd on a negative log10 scale, so that one unit is a factor of ten. A low value points to a high Kd. Broadly, the koff is the first-order rate constant of dissociation. As usually defined, the kon is the second-order rate constant of association. A low value points to slower complex formation.

The target of one assay is human IgG (human). The assay can be described thus: BLI (Octet), gEgI on Ni-NTA sensor, hIgG in solution. Background: Biolayer interferometry detects binding as a change in optical thickness at a sensor tip.
Turning to “HSV2-gE_P317F S338H_gI (from UniProt P89475 21-416; P06764 21-256) (receptor)”, the negative-log Kd (pKd) was 6.47, the Response amounted to 0.182 nm, the koff is 0.00167 s⁻¹ and the kon was 4910 M⁻¹ s⁻¹.

Turning to “HSV2-gE_P317K S338L_gI (from UniProt P89475 21-416; P06764 21-256) (receptor)”, the negative-log Kd (pKd) is 6.60, the Response was found to be 0.334 nm, the off-rate constant (koff) worked out at 0.0016 s⁻¹ and the kon came to 6350 M⁻¹ s⁻¹.

“HSV2-gE_R314P P318R_gI (from UniProt P89475 21-416; P06764 21-256) (receptor)” had a pKd of 6.50, a Response of 0.371 nm, an off-rate constant (koff) of 0.00199 s⁻¹ and a kon of 6270 M⁻¹ s⁻¹.

Turning to “HSV2-gE_R314P F322I_gI (from UniProt P89475 21-416; P06764 21-256) (receptor)”, the negative logarithm of the Kd (pKd) is 6.52, the Response amounted to 0.389 nm, the koff was determined as 0.0036 s⁻¹ and the kon is 12000 M⁻¹ s⁻¹.

Substance “HSV2-gE_P317F S338L_gI (from UniProt P89475 21-416; P06764 21-256) (receptor)” showed a negative-log Kd (pKd) of 6.65, a Response of 0.442 nm, a koff of 0.00165 s⁻¹ and a kon of 7370 M⁻¹ s⁻¹.

The target of another assay is human IgG (human). The assay can be described thus: BLI Octet, construct on Ni-NTA sensor, hIgG in solution.
On to “HSV2-gE_S338G_gI (from UniProt P89475 21-416; P06764 21-256) (receptor)”, for which the pKd is 6.47, the Response (nm) amounted to 0.562 nm, the koff came out at 0.00438 s⁻¹ and the kon worked out at 12900 M⁻¹ s⁻¹.

In turn, “HSV2-gE_P318T_gI (from UniProt P89475 21-416; P06764 21-256) (receptor)” gave a negative-log Kd (pKd) of 4.83, a Response (nm) of 0.174 nm, a dissociation rate constant (koff) of 0.00711 s⁻¹ and a kon of 478 M⁻¹ s⁻¹.

The substance “HSV2-gE_V340R_gI (from UniProt P89475 21-416; P06764 21-256) (receptor)” showed a pKd of over 12.00, a Response (nm) of 0.201 nm, a koff of under 1e-07 s⁻¹ and an on-rate (kon) of 6650 M⁻¹ s⁻¹.

The substance “HSV2-gE_H245G R320T_gI (from UniProt P89475 21-416; P06764 21-256) (receptor)” gave a pKd of 6.23, a Response (nm) of 0.279 nm, a koff of 0.00319 s⁻¹ and a kon of 5400 M⁻¹ s⁻¹.

In the case of “HSV2-gE_A248G F322A_gI (from UniProt P89475 21-416; P06764 21-256) (receptor)”, the negative logarithm of the Kd (pKd) is 6.57, the Response (nm) worked out at 0.559 nm, the dissociation rate constant (koff) was determined as 0.00352 s⁻¹ and the kon worked out at 13100 M⁻¹ s⁻¹.

In turn, “HSV2-gE_H245S_gI (from UniProt P89475 21-416; P06764 21-256) (receptor)” had a negative-log Kd (pKd) of 6.06, a Response (nm) of 0.46 nm, an off-rate (koff) of 0.00658 s⁻¹ and a kon of 7600 M⁻¹ s⁻¹.

Substance “HSV2-gE_A248G V340R_gI (from UniProt P89475 21-416; P06764 21-256) (receptor)” showed a pKd of 5.05, a Response (nm) of 0.303 nm, a koff of 0.00461 s⁻¹ and an association rate constant (kon) of 514 M⁻¹ s⁻¹.

“HSV2-gE_P317G_gI (from UniProt P89475 21-416; P06764 21-256) (receptor)” had a pKd of 6.26, a Response (nm) of 0.338 nm, a dissociation rate constant (koff) of 0.00429 s⁻¹ and a kon of 7740 M⁻¹ s⁻¹.

In the case of “HSV2-gE_A246W P317F_gI (from UniProt P89475 21-416; P06764 21-256) (receptor)”, the pKd is over 12.00, the Response (nm) amounted to 0.101 nm, the dissociation rate constant (koff) was under 1e-07 s⁻¹ and the kon stood at 6180 M⁻¹ s⁻¹.

For “HSV2-gE_A248K V340M_gI (from UniProt P89475 21-416; P06764 21-256) (receptor)”, the pKd was over 12.00, the Response (nm) worked out at 0.0007 nm, the koff is under 1e-07 s⁻¹ and the kon is 237 M⁻¹ s⁻¹.

In turn, “HSV2-gE_H245I_gI (from UniProt P89475 21-416; P06764 21-256) (receptor)” gave a pKd of 6.74, a Response (nm) of 1.02 nm, a koff of 0.00301 s⁻¹ and an on-rate (kon) of 16500 M⁻¹ s⁻¹.

With “HSV2-gE_H245G P319L_gI (from UniProt P89475 21-416; P06764 21-256) (receptor)”, the negative-log Kd (pKd) is 6.49, the Response (nm) stood at 0.361 nm, the koff worked out at 0.00189 s⁻¹ and the on-rate constant (kon) was 5760 M⁻¹ s⁻¹.

“HSV2-gE_A248K F322I_gI (from UniProt P89475 21-416; P06764 21-256) (receptor)” showed a pKd of 6.06, a Response (nm) of 0.321 nm, a koff of 0.00525 s⁻¹ and an on-rate constant (kon) of 6040 M⁻¹ s⁻¹.

Turning to “HSV2-gE_A246W P317K_gI (from UniProt P89475 21-416; P06764 21-256) (receptor)”, the pKd is over 12.00, the Response (nm) stood at 0.071 nm, the koff was under 1e-07 s⁻¹ and the kon was 6090 M⁻¹ s⁻¹.

Substance “HSV2-gE_F322N_gI (from UniProt P89475 21-416; P06764 21-256) (receptor)” showed a negative logarithm of the Kd (pKd) of 6.62, a Response (nm) of 0.73 nm, a koff of 0.00313 s⁻¹ and an association rate constant (kon) of 13100 M⁻¹ s⁻¹.

Regarding “HSV2-gE_R320M_gI (from UniProt P89475 21-416; P06764 21-256) (receptor)”, the pKd was 6.47, the Response (nm) was 0.722 nm, the off-rate (koff) was 0.00462 s⁻¹ and the association rate constant (kon) amounted to 13700 M⁻¹ s⁻¹.

In the case of “HSV2-gE_S338T_gI (from UniProt P89475 21-416; P06764 21-256) (receptor)”, the pKd is 6.73, the Response (nm) was 0.785 nm, the koff came to 0.00254 s⁻¹ and the association rate constant (kon) turned out to be 13600 M⁻¹ s⁻¹.

In the case of “HSV2-gE_A248G F322I_gI (from UniProt P89475 21-416; P06764 21-256) (receptor)”, the negative-log Kd (pKd) was 6.33, the Response (nm) worked out at 0.373 nm, the dissociation rate constant (koff) is 0.00439 s⁻¹ and the on-rate constant (kon) stood at 9450 M⁻¹ s⁻¹.

“HSV2-gE_R314N_gI (from UniProt P89475 21-416; P06764 21-256) (receptor)” had a negative logarithm of the Kd (pKd) of 5.88, a Response (nm) of 0.301 nm, a koff of 0.00748 s⁻¹ and a kon of 5700 M⁻¹ s⁻¹.

“HSV2-gE_R320V_gI (from UniProt P89475 21-416; P06764 21-256) (receptor)” had a pKd of 6.33, a Response (nm) of 0.52 nm, a dissociation rate constant (koff) of 0.00425 s⁻¹ and a kon of 9060 M⁻¹ s⁻¹.

“HSV2-gE_R314D_gI (from UniProt P89475 21-416; P06764 21-256) (receptor)” showed a pKd of 6.05, a Response (nm) of 0.385 nm, a koff of 0.00583 s⁻¹ and an association rate constant (kon) of 6480 M⁻¹ s⁻¹.

As for “HSV2-gE_R314A_gI (from UniProt P89475 21-416; P06764 21-256) (receptor)”, the negative logarithm of the Kd (pKd) is 6.33, the Response (nm) was 0.629 nm, the koff amounted to 0.00557 s⁻¹ and the kon was found to be 11900 M⁻¹ s⁻¹.

“HSV2-gE_P318S_gI (from UniProt P89475 21-416; P06764 21-256) (receptor)”: the pKd was 5.00, the Response (nm) worked out at 0.124 nm, the dissociation rate constant (koff) was 0.00504 s⁻¹ and the kon was 509 M⁻¹ s⁻¹.

Take “HSV2-gE_R314V_gI (from UniProt P89475 21-416; P06764 21-256) (receptor)”: the negative logarithm of the Kd (pKd) is 6.27, the Response (nm) stood at 0.408 nm, the koff is 0.00487 s⁻¹ and the kon amounted to 9070 M⁻¹ s⁻¹.

As to “HSV2-gE_V340P_gI (from UniProt P89475 21-416; P06764 21-256) (receptor)”, the pKd is 6.49, the Response (nm) stood at 0.566 nm, the koff was 0.00465 s⁻¹ and the kon was determined as 14500 M⁻¹ s⁻¹.

The substance “HSV2-gE_H245G P319G_gI (from UniProt P89475 21-416; P06764 21-256) (receptor)” gave a pKd of 5.70, a Response (nm) of 0.157 nm, an off-rate (koff) of 0.00357 s⁻¹ and a kon of 1780 M⁻¹ s⁻¹.

For the substance “HSV2-gE_A248T F322I_gI (from UniProt P89475 21-416; P06764 21-256) (receptor)”, the pKd was 5.05, the Response (nm) is 0.184 nm, the off-rate constant (koff) is 0.00486 s⁻¹ and the kon turned out to be 549 M⁻¹ s⁻¹.

“HSV2-gE_A248K_gI (from UniProt P89475 21-416; P06764 21-256) (receptor)” had a pKd of 6.35, a Response (nm) of 0.477 nm, a koff of 0.00499 s⁻¹ and an on-rate (kon) of 11100 M⁻¹ s⁻¹.

As for “HSV2-gE_H245A P319G_gI (from UniProt P89475 21-416; P06764 21-256) (receptor)”, the pKd is 6.31, the Response (nm) is 0.26 nm, the off-rate (koff) was found to be 0.00391 s⁻¹ and the kon was 7970 M⁻¹ s⁻¹.

“HSV2-gE_R320A_gI (from UniProt P89475 21-416; P06764 21-256) (receptor)” had a negative-log Kd (pKd) of 5.82, a Response (nm) of 0.295 nm, a dissociation rate constant (koff) of 0.00505 s⁻¹ and an on-rate constant (kon) of 3360 M⁻¹ s⁻¹.

In turn, “HSV2-gE_P318R_gI (from UniProt P89475 21-416; P06764 21-256) (receptor)” showed a negative logarithm of the Kd (pKd) of 6.10, a Response (nm) of 0.151 nm, a koff of 0.000756 s⁻¹ and a kon of 952 M⁻¹ s⁻¹.

Substance “HSV2-gE_V340M_gI (from UniProt P89475 21-416; P06764 21-256) (receptor)” gave a negative logarithm of the Kd (pKd) of 6.56, a Response (nm) of 0.621 nm, a dissociation rate constant (koff) of 0.00399 s⁻¹ and a kon of 14300 M⁻¹ s⁻¹.

“HSV2-gE_R314S_gI (from UniProt P89475 21-416; P06764 21-256) (receptor)” showed a negative logarithm of the Kd (pKd) of 6.39, a Response (nm) of 0.585 nm, an off-rate (koff) of 0.00515 s⁻¹ and a kon of 12700 M⁻¹ s⁻¹.

Source of the values: patent US20220273789A1.
